Assay results as given in the supplement of paper PMC10567573.

B1: TNXB (parent)
chain: FSEIRETSAKVNWMPPPSRADSFK

Variants of: B1
Assay: protein stability index of a GFP-peptide fusion (GPS, HEK-293T) (PSI 1-6); higher = more stable
Conditions: c terminus: a fixed tail appended
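Further: lentivirally expressed fusions sorted by FACS into six bins by GFP to DsRed ratio, PSI derived from sequencing read proportions per bin multiplied by bin number.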

| Variant | protein stability index |
| --- | --- |
| FSEIRETSAKVNWMPPPSRLDSFK [A20L] | 2.9 |
| FSEIRETSAKVNWMPPPSRHDSFK [A20H] | 3.45 |
| FSEIRETSAKVNWMPPPSRCDSFK [A20C] | 3.71 |
| FSEIRETSAKVNWMPPPSRWDSFK [A20W] | 2.92 |
| FSEIRETSAKVNWMPPPSRMDSFK [A20M] | 2.79 |
| FSEIRETSAKVNWMPPPSRVDSFK [A20V] | 2.46 |
| FSEIRETSAKVNWMPPPSREDSFK [A20E] | 3.6 |
| FSEIRETSAKVNWMPPPSRKDSFK [A20K] | 3.8 |
| FSEIRETSAKVNWMPPPSRRDSFK [A20R] | 3.61 |
| FSEIRETSAKVNWMPPPSRNDSFK [A20N] | 3.27 |
| FSEIRETSAKVNWMPPPSRGDSFK [A20G] | 3.24 |
| FSEIRETSAKVNWMPPPSRDDSFK [A20D] | 3.88 |
| FSEIRETSAKVNWMPPPSRYDSFK [A20Y] | 2.93 |
| FSEIRETSAKVNWMPPPSRIDSFK [A20I] | 3.05 |
| FSEIRETSAKVNWMPPPSRSDSFK [A20S] | 3.5 |
| FSEIRETSAKVNWMPPPSRFDSFK [A20F] | 2.73 |
| FSEIRETSAKVNWMPPPSRPDSFK [A20P] | 3.13 |
| FSEIRETSAKVNWMPPPSRTDSFK [A20T] | 2.8 |
| FSEIRETSAKVNWMPPPSRQDSFK [A20Q] | 3.27 |
| FSEIRETSAKVNWMPPPSSADSFK [R19S] | 3.73 |
| FSEIRETSAKVNWMPPPSVADSFK [R19V] | 3.38 |
| FSEIRETSAKVNWMPPPSQADSFK [R19Q] | 3.6 |
| FSEIRETSAKVNWMPPPSFADSFK [R19F] | 2.49 |
| FSEIRETSAKVNWMPPPSYADSFK [R19Y] | 3.19 |

| Variant | protein stability index |
| --- | --- |
| FSEIRETSAKVNWMPPPSPADSFK [R19P] | 3.7 |
| FSEIRETSAKVNWMPPPSDADSFK [R19D] | 4.25 |
| FSEIRETSAKVNWMPPPSNADSFK [R19N] | 3.85 |
| FSEIRETSAKVNWMPPPSWADSFK [R19W] | 2.18 |
| FSEIRETSAKVNWMPPPSAADSFK [R19A] | 3.52 |
| FSEIRETSAKVNWMPPPSKADSFK [R19K] | 3.6 |
| FSEIRETSAKVNWMPPPSCADSFK [R19C] | 3.33 |
| FSEIRETSAKVNWMPPPSLADSFK [R19L] | 2.65 |
| FSEIRETSAKVNWMPPPSIADSFK [R19I] | 3.12 |
| FSEIRETSAKVNWMPPPSHADSFK [R19H] | 3.15 |
| FSEIRETSAKVNWMPPPSGADSFK [R19G] | 3.43 |
| FSEIRETSAKVNWMPPPSMADSFK [R19M] | 3.12 |
| FSEIRETSAKVNWMPPPSEADSFK [R19E] | 4.2 |
| FSEIRETSAKVNWMPPPSTADSFK [R19T] | 3.71 |
| FSEIRETSAKVNWMPPPSRALSFK [D21L] | 3.06 |
| FSEIRETSAKVNWMPPPSRAQSFK [D21Q] | 3.5 |
| FSEIRETSAKVNWMPPPSRARSFK [D21R] | 3.52 |
| FSEIRETSAKVNWMPPPSRAVSFK [D21V] | 3.28 |
| FSEIRETSAKVNWMPPPSRAGSFK [D21G] | 3.52 |
| FSEIRETSAKVNWMPPPSRAFSFK [D21F] | 2.02 |
| FSEIRETSAKVNWMPPPSRAHSFK [D21H] | 3.13 |
| FSEIRETSAKVNWMPPPSRATSFK [D21T] | 2.6 |
| FSEIRETSAKVNWMPPPSRAASFK [D21A] | 3.17 |
| FSEIRETSAKVNWMPPPSRAESFK [D21E] | 3.79 |

| Variant | protein stability index |
| --- | --- |
| FSEIRETSAKVNWMPPPSRASSFK [D21S] | 3.62 |
| FSEIRETSAKVNWMPPPSRANSFK [D21N] | 3.34 |
| FSEIRETSAKVNWMPPPSRAWSFK [D21W] | 2.45 |
| FSEIRETSAKVNWMPPPSRAISFK [D21I] | 3.05 |
| FSEIRETSAKVNWMPPPSRAPSFK [D21P] | 3.61 |
| FSEIRETSAKVNWMPPPSRAMSFK [D21M] | 3.41 |
| FSEIRETSAKVNWMPPPSRAKSFK [D21K] | 3.76 |
| FSEIRETSAKVNWMPPPSRACSFK [D21C] | 2.79 |
| FSEIRETSAKVNWMPPWSRADSFK [P17W] | 2.79 |
| FSEIRETSAKVNWMPPQSRADSFK [P17Q] | 3.24 |
| FSEIRETSAKVNWMPPFSRADSFK [P17F] | 3.19 |
| FSEIRETSAKVNWMPPTSRADSFK [P17T] | 3.99 |
| FSEIRETSAKVNWMPPESRADSFK [P17E] | 4.09 |
| FSEIRETSAKVNWMPPYSRADSFK [P17Y] | 2.67 |
| FSEIRETSAKVNWMPPLSRADSFK [P17L] | 2.86 |
| FSEIRETSAKVNWMPPNSRADSFK [P17N] | 3.35 |
| FSEIRETSAKVNWMPPASRADSFK [P17A] | 3.65 |
| FSEIRETSAKVNWMPPSSRADSFK [P17S] | 3.44 |
| FSEIRETSAKVNWMPPDSRADSFK [P17D] | 3.84 |
| FSEIRETSAKVNWMPPVSRADSFK [P17V] | 3.23 |
| FSEIRETSAKVNWMPPHSRADSFK [P17H] | 3.08 |
| FSEIRETSAKVNWMPPISRADSFK [P17I] | 3.36 |
| FSEIRETSAKVNWMPPKSRADSFK [P17K] | 3.43 |
| FSEIRETSAKVNWMPPCSRADSFK [P17C] | 2.81 |

| Variant | protein stability index |
| --- | --- |
| FSEIRETSAKVNWMPPGSRADSFK [P17G] | 3.81 |
| FSEIRETSAKVNWMPPRSRADSFK [P17R] | 3.3 |
| FSEIRETSAKVNWMPPMSRADSFK [P17M] | 2.97 |
| FSEIRETSAKVNWMPPPCRADSFK [S18C] | 3.37 |
| FSEIRETSAKVNWMPPPRRADSFK [S18R] | 3.43 |
| FSEIRETSAKVNWMPPPTRADSFK [S18T] | 3.16 |
| FSEIRETSAKVNWMPPPERADSFK [S18E] | 3.67 |
| FSEIRETSAKVNWMPPPLRADSFK [S18L] | 2.75 |
| FSEIRETSAKVNWMPPPHRADSFK [S18H] | 3.3 |
| FSEIRETSAKVNWMPPPDRADSFK [S18D] | 3.52 |
| FSEIRETSAKVNWMPPPKRADSFK [S18K] | 3.57 |
| FSEIRETSAKVNWMPPPQRADSFK [S18Q] | 3.64 |
| FSEIRETSAKVNWMPPPGRADSFK [S18G] | 3.51 |
| FSEIRETSAKVNWMPPPIRADSFK [S18I] | 2.46 |
| FSEIRETSAKVNWMPPPARADSFK [S18A] | 3.68 |
| FSEIRETSAKVNWMPPPFRADSFK [S18F] | 2.71 |
| FSEIRETSAKVNWMPPPMRADSFK [S18M] | 2.89 |
| FSEIRETSAKVNWMPPPYRADSFK [S18Y] | 3.5 |
| FSEIRETSAKVNWMPPPNRADSFK [S18N] | 3.18 |
| FSEIRETSAKVNWMPPPPRADSFK [S18P] | 3.42 |
| FSEIRETSAKVNWMPPPWRADSFK [S18W] | 1.98 |
| FSEIRETSAKVNWMPPPVRADSFK [S18V] | 3.32 |
